Reference: US20190225676A1 (Hoffmann-La Roche, published 2019)

B1: FAB-COLL-I: anti-digoxigenin antibody Fab conjugated to anti-collagen II antibody scFv I (bispecific antibody)
heavy: QVQLVESGGGLVKPGGSLRLSCAASGFTFSDYAMSWIRQAPGKGLEWVSSINIGATYIYYADSVKGRFTISRDNAKNSLYLQMNSLRAEDTAVYYCARPGSPYEYDKAYYSMAYWGQGTTVTVSSASTKGPSVFPLAPSSKSTSGGTAALGCLVKDYFPEPVTVSWNSGALTSGVHTFPAVLQSSGLYSLSSVVTVPSSSLGTQTYICNVNHKPSNTKVDKKVEPKSCGGGGSGGGGSEIVLTQSPATLSLSPGERATLSCRASQSVRDFLAWYQQKPGQAPRLLIYGASNRATGIPARFSGSGSGTDFTLTISSLEPEDFAVYYCQQRGSAPLTFGQGTKVEIKGGGGSGGGGSGGGGSGGGGSQVQLVQSGAEVKKPGSSVKVSCKASGGTFSSYAISWVRQAPGQGLEWMGGIIPIFGTANYAQKFQGRVTITADESTSTAYMELSSLRSEDTAVYYCARDPNGNIVLSEYFDYWGQGTLVTVSS
light: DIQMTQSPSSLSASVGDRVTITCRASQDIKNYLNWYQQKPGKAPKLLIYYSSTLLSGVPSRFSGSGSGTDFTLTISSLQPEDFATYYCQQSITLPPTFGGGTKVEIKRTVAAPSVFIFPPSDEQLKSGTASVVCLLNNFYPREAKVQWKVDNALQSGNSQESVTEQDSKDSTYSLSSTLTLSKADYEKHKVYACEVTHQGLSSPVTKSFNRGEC
notes: Fab-scFv fusion; also called FAB-COLL-I (2 nM)
B2: FAB-COLL-II: anti-digoxigenin antibody Fab conjugated to anti-collagen II antibody scFv II (bispecific antibody)
heavy: QVQLVESGGGLVKPGGSLRLSCAASGFTFSDYAMSWIRQAPGKGLEWVSSINIGATYIYYADSVKGRFTISRDNAKNSLYLQMNSLRAEDTAVYYCARPGSPYEYDKAYYSMAYWGQGTTVTVSSASTKGPSVFPLAPSSKSTSGGTAALGCLVKDYFPEPVTVSWNSGALTSGVHTFPAVLQSSGLYSLSSVVTVPSSSLGTQTYICNVNHKPSNTKVDKKVEPKSCGGGGSGGGGSEIVLTQSPATLSLSPGERATLSCRASQSVDDWLAWYQQKPGQAPRLLIYDASNRATGIPARFSGSGSGTDFTLTISSLEPEDFAVYYCQQGDTAPITFGQGTKVEIKGGGGSGGGGSGGGGSGGGGSQVQLVQSGAEVKKPGSSVKVSCKASGGTFSSYAISWVRQAPGQGLEWMGGIIPIFGTANYAQKFQGRVTITADESTSTAYMELSSLRSEDTAVYYCARNIVGDYLLDYWGQGTLVTVSS
light: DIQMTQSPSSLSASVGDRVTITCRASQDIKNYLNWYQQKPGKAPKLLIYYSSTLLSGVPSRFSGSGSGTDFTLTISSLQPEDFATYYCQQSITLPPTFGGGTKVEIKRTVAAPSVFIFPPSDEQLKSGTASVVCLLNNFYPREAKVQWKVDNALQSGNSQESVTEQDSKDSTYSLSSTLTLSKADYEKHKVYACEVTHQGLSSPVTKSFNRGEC
notes: Fab-scFv fusion; also called FAB-COLL-II (8 nM)
B3: FAB-COLL-III: anti-digoxigenin antibody Fab conjugated to anti-collagen II antibody scFv III (bispecific antibody)
heavy: QVQLVESGGGLVKPGGSLRLSCAASGFTFSDYAMSWIRQAPGKGLEWVSSINIGATYIYYADSVKGRFTISRDNAKNSLYLQMNSLRAEDTAVYYCARPGSPYEYDKAYYSMAYWGQGTTVTVSSASTKGPSVFPLAPSSKSTSGGTAALGCLVKDYFPEPVTVSWNSGALTSGVHTFPAVLQSSGLYSLSSVVTVPSSSLGTQTYICNVNHKPSNTKVDKKVEPKSCGGGGSGGGGSEIVLTQSPATLSLSPGERATLSCRASQSVADWLAWYQQKPGQAPRLLIYDASNRATGIPARFSGSGSGTDFTLTISSLEPEDFAVYYCQQYDGWPITFGQGTKVEIKGGGGSGGGGSGGGGSGGGGSQVQLVQSGAEVKKPGSSVKVSCKASGGTFSSYAISWVRQAPGQGLEWMGGIIPIFGTANYAQKFQGRVTITADESTSTAYMELSSLRSEDTAVYYCARHLYYMLDYWGQGTLVTVSS
light: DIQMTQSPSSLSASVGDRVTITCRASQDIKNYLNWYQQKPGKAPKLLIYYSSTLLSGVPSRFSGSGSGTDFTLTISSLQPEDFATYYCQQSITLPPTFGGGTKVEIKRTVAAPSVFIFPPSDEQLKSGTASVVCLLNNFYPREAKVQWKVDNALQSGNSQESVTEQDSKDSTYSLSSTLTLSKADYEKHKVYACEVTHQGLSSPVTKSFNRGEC
notes: Fab-scFv fusion; also called FAB-COLL-III (8 nM)

Target: collagen (ECM compound added to PBS in the FCS diffusion test solution)
Assay: cell-based or functional assay

Binder	diffusion rate FCS (increase in PBS comprising ECM compound at equimolar concentration compared to PBS alone)
B1	180%
B2	260%
B3	40%

Target: T1, porcine Collagen type II (USBiological C7510-31) (porcine)
T1 construct: Bought material, immobilised by amine coupling on the sensor chip; also called porcine collagen II
Assay: SPR (BIAcore T200), collagen II amine-coupled on chip, construct injected 1.23-900 nM, 25 C, 1:1 Langmuir fit
Method: (§1) Binding kinetics of anti-collagen antibodies to human Collage type II (Millipore CC052) and porcine Collagen type II (USBiological C7510-31) was investigated by surface plasmon resonance using a BIAcore T200 instrument (GE Healthcare). All experiments were performed at 25° C. using HBS-P (10 mM […], 140 mM NaCl, 0.05% Tween 20 pH 7.4) as running and dilution buffer. Collagen type II was immobilized on a Series S CMS Sensor Chip (GE Healthcare) using standard amine coupling chemistry. Anti-Collagen antibodies were injected for 180 s with concentrations from 1.23 up to 900 nM (1:3 dilution series) onto the surface (association phase). The dissociation phase was monitored for 600 sec by washing with running buffer. The surface was regenerated by injecting 0.85% H₃PO₄ for 60 sec. Bulk refractive index differences were corrected by subtracting the response obtained from a mock surface. Blank injections were subtracted (double referencing). The derived curves were fitted to a 1:1 Langmuir binding model using the BIAevaluation software.

Binder	Kd
B1	56 nM
B2	50 nM
B3	342 nM

Target: T2, human Collagen type II (Millipore CC052) (human, UniProt P02458 182-1241, limits assumed)
T2 construct: Bought material, immobilised by amine coupling on the sensor chip; also called human collagen II
Assay: as above
Method: as §1

T2 sequence (P02458 182-1241 limits assumed): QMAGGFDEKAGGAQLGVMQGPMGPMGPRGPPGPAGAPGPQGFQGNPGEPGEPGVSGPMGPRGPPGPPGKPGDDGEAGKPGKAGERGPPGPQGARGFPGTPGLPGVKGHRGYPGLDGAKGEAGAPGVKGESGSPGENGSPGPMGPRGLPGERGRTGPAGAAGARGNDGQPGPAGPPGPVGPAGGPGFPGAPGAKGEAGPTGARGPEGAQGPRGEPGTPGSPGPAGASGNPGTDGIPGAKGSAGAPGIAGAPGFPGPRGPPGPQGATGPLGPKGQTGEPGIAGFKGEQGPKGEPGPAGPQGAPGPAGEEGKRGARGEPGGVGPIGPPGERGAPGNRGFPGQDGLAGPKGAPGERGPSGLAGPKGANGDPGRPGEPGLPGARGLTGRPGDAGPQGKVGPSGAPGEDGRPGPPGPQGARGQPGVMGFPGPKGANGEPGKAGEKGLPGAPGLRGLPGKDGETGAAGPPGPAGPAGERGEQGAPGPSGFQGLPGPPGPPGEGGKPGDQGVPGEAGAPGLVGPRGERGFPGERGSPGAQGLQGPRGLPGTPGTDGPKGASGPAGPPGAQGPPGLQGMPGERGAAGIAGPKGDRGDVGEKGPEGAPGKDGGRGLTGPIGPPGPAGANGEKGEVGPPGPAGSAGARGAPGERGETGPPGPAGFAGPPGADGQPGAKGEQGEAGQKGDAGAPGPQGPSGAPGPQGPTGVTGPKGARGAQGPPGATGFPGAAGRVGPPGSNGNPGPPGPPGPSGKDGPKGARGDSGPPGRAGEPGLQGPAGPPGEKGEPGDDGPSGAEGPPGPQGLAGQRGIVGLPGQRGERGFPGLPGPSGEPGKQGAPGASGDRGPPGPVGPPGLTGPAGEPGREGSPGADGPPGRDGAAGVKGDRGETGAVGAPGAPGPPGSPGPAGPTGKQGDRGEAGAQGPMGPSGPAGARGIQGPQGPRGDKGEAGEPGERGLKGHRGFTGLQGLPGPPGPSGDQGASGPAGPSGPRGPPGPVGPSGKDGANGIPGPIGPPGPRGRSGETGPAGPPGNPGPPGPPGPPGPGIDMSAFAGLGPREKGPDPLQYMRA

Binder	Kd
B1	30 nM
B2	15 nM
B3	180 nM
